Biological target: T1, [^125I]LS370
T1 chain: XYXDEVDGKGC

B1: Caspase-3 (Cal Biochem) (protein)
chain: SGISLDNSYKMDYPEMGLCIIINNKNFHKSTGMTSRSGTDVDAANLRETFRNLKYEVRNKNDLTREEIVELMRDVSKEDHSKRSSFVCVLLSHGEEGIIFGTNGPVDLKKITNFFRGDRCRSLTGKPKLFIIQACRGTELDCGIETDSGVDDDMACHKIPVEADFLYAYSTAPGYYSWRNSKDGSWFIQSLCAMLKQYADKLEFMHILTRVNRKVATEFESFSFDATFHAKKQIPCIVSMLTKELYFYH
hydrolysis by caspase-3 (radiochromatogram): [^125I]LS370 eluted at 19.5 min, and in the presence of caspase-3, the cleaved fragments eluted at 12.5 and 13 min
kcat (kinetic analysis of hydrolysis, radio-HPLC): 1.02 s⁻¹
